According to patent EP4700046A1:
Positions count from the first letter of the chain named.

B1: IgG_18 (antibody, part only; not given: VL CDR2; constant regions, V domains shown, part only)
VH: EVQLLESGGGLVQPGGSLRLSCAASGFTFSNYAMSWVRQAPGKGLEWVSSISPSGSSKYYADSVKGRFTISRDNSKNTLYLQMNSLRAEDTAVYYCAKHNRHFDYWGQGTLVTVSS
VL, part: QSVLTQPPSASGTPGQRVTISCTGSSSNIGSHYVSWYQQLPGTAPKLLIYHRPSGVPDRFSGSKSGTSASLAISGLRSEDEADYYCGSWDDSLNAYVFGGGTKLTVL
B2: IgG_54 (antibody, part only; not given: VL CDR2; constant regions, V domains shown, part only)
VH: EVQLLESGEGLVQPGGSLRLSCAASGFTFSNYSMSWVRQAPGKGLEWVSGISSGGGSKYYADSVKGRFTISRDNSKNTLYLQMNSLRAEDTAVYYCARQATAFDYWGQGTLVTVSS
VL, part: B1 VL, part with S31N, H32N, Y33S, S35T, H51N, S88T, N94S, G99C
B3: IgG_56 (antibody, part only; not given: VL CDR2; constant regions, V domains shown, part only)
VH: EVQLLESGGGLVQPGGSLRLSCAASGFTFSGYPMSWVRQAPGKGLEWVSSISSSGGNTYYADSVKGRFTISRDNSKNTLYLQMNSLRAEDTAVYYCARFGIHHPDRALYYANAMDVWGQGTLVTVSS
VL, part: B1 VL, part with T23S, S31N, H32N, Y33D, S35N, H51Q, G87A, S88T, D91A, N94S

Each binder was assayed against 6xHis-SUMO-CXCR2(NTD) (human) (UniProt P25025) (assay: BLI (Octet R4), His-tagged SUMO-CXCR2(NTD) on HIS1K biosensor, IgG as analyte, 1:1 model).
UniProt P25025, sequence (P25025 1-48): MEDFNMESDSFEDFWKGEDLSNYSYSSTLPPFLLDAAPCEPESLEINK

| Binder | Kd |
| --- | --- |
| B1 | 8.9 nM |
| B2 | 250 nM |
| B3 | 5.6 nM |
